Experimental data taken from PMC5916898.

Tests used:
GST-KLF4-ZF [1] = target: GST-KLF4-ZF (UniProt O43474); test: fluorescence intensity (de-quenching); settings: Pull-down: 150 mM NaCl (or LiCl), 50 mM Tris pH 8, 0.25% NP-40, 1 mM TCEP, protease inhibitors, 4 C, 2 h; EMSA with lysate in same buffer, RT 15 min; FP in …
GST-KLF4-ZF [2] = target: GST-KLF4-ZF (UniProt O43474); test: fluorescence polarization; settings: Pull-down: 150 mM NaCl (or LiCl), 50 mM Tris pH 8, 0.25% NP-40, 1 mM TCEP, protease inhibitors, 4 C, 2 h; EMSA with lysate in same buffer, RT 15 min; FP in …
BAZ1A (human (HeLa)) = test: pull-down TMT-MS titration; settings: apparent, Pull-down: 150 mM NaCl (or LiCl), 50 mM Tris pH 8, 0.25% NP-40, 1 mM TCEP, protease inhibitors, 4 C, 2 h, EMSA with lysate in same buffer, RT 15 min, FP in …
BPTF (human (HeLa)) = test: pull-down TMT-MS titration; settings: apparent, Pull-down: 150 mM NaCl (or LiCl), 50 mM Tris pH 8, 0.25% NP-40, 1 mM TCEP, protease inhibitors, 4 C, 2 h, EMSA with lysate in same buffer, RT 15 min, FP in …
C17orf49 (human (HeLa)) = test: pull-down TMT-MS titration; settings: apparent; histone H3K4me3; Pull-down: 150 mM NaCl (or LiCl), 50 mM Tris pH 8, 0.25% NP-40, 1 mM TCEP, protease inhibitors, 4 C, 2 h; EMSA with lysate in same buffer, RT 15 min; FP in …
BAZ1B (human (HeLa)) = test: pull-down TMT-MS titration; settings: apparent, Pull-down: 150 mM NaCl (or LiCl), 50 mM Tris pH 8, 0.25% NP-40, 1 mM TCEP, protease inhibitors, 4 C, 2 h, EMSA with lysate in same buffer, RT 15 min, FP in …
SMARCA2 (human (HeLa)) = test: pull-down TMT-MS titration; settings: apparent, Pull-down: 150 mM NaCl (or LiCl), 50 mM Tris pH 8, 0.25% NP-40, 1 mM TCEP, protease inhibitors, 4 C, 2 h, EMSA with lysate in same buffer, RT 15 min, FP in …
SMARCA5 (human (HeLa)) = SMARCA5 (human (HeLa)) (UniProt O60264); test: pull-down TMT-MS titration; settings: apparent, Pull-down: 150 mM NaCl (or LiCl), 50 mM Tris pH 8, 0.25% NP-40, 1 mM TCEP, protease inhibitors, 4 C, 2 h, EMSA with lysate in same buffer, RT 15 min, FP in …
SMARCA4 (human (HeLa)) = SMARCA4 (human (HeLa)) (UniProt P51532); test: pull-down TMT-MS titration; settings: apparent, Pull-down: 150 mM NaCl (or LiCl), 50 mM Tris pH 8, 0.25% NP-40, 1 mM TCEP, protease inhibitors, 4 C, 2 h, EMSA with lysate in same buffer, RT 15 min, FP in …
PHF10 (human (HeLa)) = test: pull-down TMT-MS titration; settings: apparent; histone H3K9ac K14ac; Pull-down: 150 mM NaCl (or LiCl), 50 mM Tris pH 8, 0.25% NP-40, 1 mM TCEP, protease inhibitors, 4 C, 2 h; EMSA with lysate in same buffer, RT 15 min; FP in …
[3] = target: H3K9AcK14Ac modified di-nucleosome (human) (UniProt P68431); test: affinity purification with mass spectrometry; titration series of ten concentrations of biotinylated recombinant di-nucleosome on streptavidin beads; 100 ug HeLa nuclear lysate per pulldown in PBB (150 mM NaCl, 50 mM Tris pH 8, 0.25% NP-40, 1 mM TCEP), 2 h at 4 °C; 10-plex TMT, SPS-MS3; apparent Kd from a Hill-like fit, triplicate, r^2 > 0.9

Chain of SMARCA4 (human (HeLa)) (P51532 whole entry): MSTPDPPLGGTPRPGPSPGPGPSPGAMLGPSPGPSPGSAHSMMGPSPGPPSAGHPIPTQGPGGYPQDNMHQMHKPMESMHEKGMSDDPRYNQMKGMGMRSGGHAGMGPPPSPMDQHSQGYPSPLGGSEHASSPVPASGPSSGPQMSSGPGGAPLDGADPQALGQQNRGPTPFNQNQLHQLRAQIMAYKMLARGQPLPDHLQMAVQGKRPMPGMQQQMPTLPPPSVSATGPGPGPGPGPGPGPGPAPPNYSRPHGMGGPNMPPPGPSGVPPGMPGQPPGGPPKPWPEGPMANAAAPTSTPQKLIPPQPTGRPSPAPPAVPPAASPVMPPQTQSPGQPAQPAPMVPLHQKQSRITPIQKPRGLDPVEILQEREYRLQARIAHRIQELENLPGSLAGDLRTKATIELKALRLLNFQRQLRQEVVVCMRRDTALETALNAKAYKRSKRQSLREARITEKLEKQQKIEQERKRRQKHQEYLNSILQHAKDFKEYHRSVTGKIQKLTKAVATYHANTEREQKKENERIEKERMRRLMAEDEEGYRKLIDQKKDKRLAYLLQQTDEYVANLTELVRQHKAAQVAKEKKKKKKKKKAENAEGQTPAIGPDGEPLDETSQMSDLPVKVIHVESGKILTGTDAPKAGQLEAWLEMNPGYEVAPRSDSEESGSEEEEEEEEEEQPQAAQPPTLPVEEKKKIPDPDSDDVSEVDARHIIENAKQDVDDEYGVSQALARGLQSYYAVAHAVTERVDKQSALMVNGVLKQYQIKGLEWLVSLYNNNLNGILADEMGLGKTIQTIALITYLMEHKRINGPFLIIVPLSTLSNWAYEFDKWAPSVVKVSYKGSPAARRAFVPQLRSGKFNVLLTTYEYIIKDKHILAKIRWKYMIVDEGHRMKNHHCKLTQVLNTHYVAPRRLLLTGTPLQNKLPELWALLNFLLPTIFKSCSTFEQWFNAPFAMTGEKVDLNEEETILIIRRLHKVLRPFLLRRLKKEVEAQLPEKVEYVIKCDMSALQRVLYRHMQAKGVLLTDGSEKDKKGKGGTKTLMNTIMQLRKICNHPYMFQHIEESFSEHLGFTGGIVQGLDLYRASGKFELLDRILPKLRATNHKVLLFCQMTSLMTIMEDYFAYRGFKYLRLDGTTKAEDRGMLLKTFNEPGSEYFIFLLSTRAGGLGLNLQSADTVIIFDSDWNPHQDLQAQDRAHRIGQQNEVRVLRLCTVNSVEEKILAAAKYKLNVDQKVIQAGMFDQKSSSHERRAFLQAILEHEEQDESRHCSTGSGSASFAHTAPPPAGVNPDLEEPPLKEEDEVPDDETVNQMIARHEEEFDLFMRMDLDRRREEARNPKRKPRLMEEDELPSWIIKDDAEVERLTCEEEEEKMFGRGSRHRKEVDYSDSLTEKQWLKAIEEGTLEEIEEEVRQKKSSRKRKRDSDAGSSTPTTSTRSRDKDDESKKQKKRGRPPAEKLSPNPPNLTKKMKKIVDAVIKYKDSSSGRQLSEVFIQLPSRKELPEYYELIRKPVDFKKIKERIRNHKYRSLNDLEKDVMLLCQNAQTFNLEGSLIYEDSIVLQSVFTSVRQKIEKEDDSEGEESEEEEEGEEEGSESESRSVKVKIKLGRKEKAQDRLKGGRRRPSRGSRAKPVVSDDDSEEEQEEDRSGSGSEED
Chain of SMARCA5 (human (HeLa)) (O60264 2-1052): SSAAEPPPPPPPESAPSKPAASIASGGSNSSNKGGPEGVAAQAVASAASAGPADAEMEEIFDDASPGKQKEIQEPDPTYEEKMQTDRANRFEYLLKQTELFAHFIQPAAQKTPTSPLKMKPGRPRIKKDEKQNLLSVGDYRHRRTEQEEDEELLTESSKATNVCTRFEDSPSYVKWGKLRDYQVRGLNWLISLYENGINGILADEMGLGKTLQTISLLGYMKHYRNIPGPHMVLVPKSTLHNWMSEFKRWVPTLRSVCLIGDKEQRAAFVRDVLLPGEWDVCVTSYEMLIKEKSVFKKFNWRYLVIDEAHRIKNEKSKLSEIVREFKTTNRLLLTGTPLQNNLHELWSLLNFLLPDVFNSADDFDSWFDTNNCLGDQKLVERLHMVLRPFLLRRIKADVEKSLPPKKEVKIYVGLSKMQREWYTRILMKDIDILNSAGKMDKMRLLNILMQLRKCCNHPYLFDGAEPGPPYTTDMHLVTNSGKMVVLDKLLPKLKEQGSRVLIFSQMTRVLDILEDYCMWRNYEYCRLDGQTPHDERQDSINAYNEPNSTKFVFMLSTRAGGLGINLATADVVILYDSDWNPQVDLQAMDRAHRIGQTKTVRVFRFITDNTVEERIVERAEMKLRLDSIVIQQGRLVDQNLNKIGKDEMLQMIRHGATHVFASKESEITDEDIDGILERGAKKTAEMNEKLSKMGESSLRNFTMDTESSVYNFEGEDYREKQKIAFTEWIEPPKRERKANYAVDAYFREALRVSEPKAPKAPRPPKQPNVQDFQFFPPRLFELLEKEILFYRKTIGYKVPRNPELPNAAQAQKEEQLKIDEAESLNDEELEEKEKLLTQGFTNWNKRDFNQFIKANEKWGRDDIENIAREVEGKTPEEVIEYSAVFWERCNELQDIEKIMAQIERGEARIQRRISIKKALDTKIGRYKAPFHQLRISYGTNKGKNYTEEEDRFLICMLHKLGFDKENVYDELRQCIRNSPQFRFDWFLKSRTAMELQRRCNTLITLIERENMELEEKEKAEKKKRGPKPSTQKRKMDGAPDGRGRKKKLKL
Chain of GST-KLF4-ZF (O43474 whole entry): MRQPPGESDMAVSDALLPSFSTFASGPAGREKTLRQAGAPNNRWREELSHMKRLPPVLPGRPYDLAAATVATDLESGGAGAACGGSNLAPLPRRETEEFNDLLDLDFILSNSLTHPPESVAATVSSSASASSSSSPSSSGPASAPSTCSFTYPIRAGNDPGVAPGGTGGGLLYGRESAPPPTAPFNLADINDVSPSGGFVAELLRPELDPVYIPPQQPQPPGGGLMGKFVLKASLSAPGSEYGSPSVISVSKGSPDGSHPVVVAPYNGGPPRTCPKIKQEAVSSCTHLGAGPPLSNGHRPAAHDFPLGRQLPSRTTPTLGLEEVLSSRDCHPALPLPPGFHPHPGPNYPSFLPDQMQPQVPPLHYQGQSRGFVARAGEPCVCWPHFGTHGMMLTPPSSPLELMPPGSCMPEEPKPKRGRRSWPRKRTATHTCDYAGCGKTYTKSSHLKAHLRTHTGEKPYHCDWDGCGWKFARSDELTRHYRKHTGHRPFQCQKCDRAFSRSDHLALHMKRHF
Chain of PHF10 (Q8WUB8 whole entry): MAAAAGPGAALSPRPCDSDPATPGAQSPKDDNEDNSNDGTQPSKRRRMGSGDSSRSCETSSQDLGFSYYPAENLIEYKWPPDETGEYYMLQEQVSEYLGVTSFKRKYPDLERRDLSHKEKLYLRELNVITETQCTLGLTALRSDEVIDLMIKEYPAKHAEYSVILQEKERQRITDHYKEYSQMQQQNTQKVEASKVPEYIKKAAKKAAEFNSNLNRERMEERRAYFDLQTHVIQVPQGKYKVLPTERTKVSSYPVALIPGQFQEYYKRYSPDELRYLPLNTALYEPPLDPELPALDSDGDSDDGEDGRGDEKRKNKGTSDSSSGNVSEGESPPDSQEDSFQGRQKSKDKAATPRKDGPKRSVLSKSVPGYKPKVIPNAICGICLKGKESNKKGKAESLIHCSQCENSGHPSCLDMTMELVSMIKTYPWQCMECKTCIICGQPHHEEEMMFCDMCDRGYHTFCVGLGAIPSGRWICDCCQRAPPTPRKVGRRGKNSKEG

## GAGAGCCCCGCCCCCTGGCT (double strand) [SP/KLF wild-type Cy5]
GST-KLF4-ZF [1]
  Kd: 20.2 nM
GST-KLF4-ZF [2]
  Kd: 21.8 nM

## H3K4me3 di-nucleosome
BAZ1A (human (HeLa)); histone H3K4me3
  Kd: 100 nM
BPTF (human (HeLa)); histone H3K4me3
  Kd: 54 nM
C17orf49 (human (HeLa))
  Kd: 68.7 nM
BAZ1B (human (HeLa)); histone H3K4me3
  Kd: 90.6 nM
SMARCA2 (human (HeLa)); histone H3K4me3
  Kd: 51.8 nM
SMARCA5 (human (HeLa)); histone H3K4me3
  Kd: 82.4 nM
SMARCA4 (human (HeLa)); histone H3K4me3
  Kd: 123 nM

## H3K9AcK14Ac di-nucleosome
BAZ1A (human (HeLa)); histone H3K9ac K14ac
  Kd: 114 nM
BPTF (human (HeLa)); histone H3K9ac K14ac
  Kd: 27.9 nM
BAZ1B (human (HeLa)); histone H3K9ac K14ac
  Kd: 15 nM
PHF10 (human (HeLa))
  Kd: 35 nM
SMARCA2 (human (HeLa)); histone H3K9ac K14ac
  Kd: 35.9 nM
SMARCA5 (human (HeLa)); histone H3K9ac K14ac
  Kd: 52.6 nM
SMARCA4 (human (HeLa)); histone H3K9ac K14ac
  Kd: 68.7 nM

## PHF10 (from UniProt Q8WUB8 1-498) (natural protein)
[3]
  Kd: 35 nM

## unmodified H3 di-nucleosome
BAZ1A (human (HeLa))
  Kd: 151 nM
BPTF (human (HeLa))
  Kd: 53.2 nM
BAZ1B (human (HeLa))
  Kd: 122 nM
SMARCA2 (human (HeLa))
  Kd: 162 nM
SMARCA5 (human (HeLa))
  Kd: 102 nM
SMARCA4 (human (HeLa))
  Kd: 174 nM
